In patent US20120014957A1 (AbbVie / Abbott, published 2012):

B1: DVD1333 (bispecific antibody, human IgG1, kappa)
heavy: not shown
light: DIQMTQSPSSLSASVGDRVTITCRASEDIYNALAWYQQKPGKAPKLLIYNTDTLHTGVPSRFSGSGSGTDYTLTISSLQPEDFATYFCQHYFHYPRTFGQGTKVEIKRTVAAPQAVLTQPSSLSAPPGASASLTCTLRSGFNVDSYRISWYQQKPGSPPQYLLRYKSDSDKQQGSGVPSRFSGSKDASANAGILLISGLQSEDEADYYCMIWHSSAWVFGGGTKLTVLRTVAAPSVFIFPPSDEQLKSGTASVVCLLNNFYPREAKVQWKVDNALQSGNSQESVTEQDSKDSTYSLSSTLTLSKADYEKHKVYACEVTHQGLSSPVTKSFNRGEC
B2: DVD1338 (bispecific antibody, human IgG1, kappa)
heavy: not shown
light: DIQMTQSPSSLSASVGDRVTITCQASQDISNYLNWYQQKPGKAPKLLIYDASNLETGVPSRFSGSGSGTDFTFTISSLQPEDIATYFCQHFDHLPLAFGGGTKVEIKRTVAAPDIQMTQSPSSLSASVGDRVTITCRASEDIYNALAWYQQKPGKAPKLLIYNTDTLHTGVPSRFSGSGSGTDYTLTISSLQPEDFATYFCQHYFHYPRTFGQGTKVEIKRTVAAPSVFIFPPSDEQLKSGTASVVCLLNNFYPREAKVQWKVDNALQSGNSQESVTEQDSKDSTYSLSSTLTLSKADYEKHKVYACEVTHQGLSSPVTKSFNRGEC
B3: DVD1315 (bispecific antibody, human IgG1, kappa)
heavy: not shown
light: DIQMTQSPSSLSASVGDRVTITCRASEDIYNALAWYQQKPGKAPKLLIYNTDTLHTGVPSRFSGSGSGTDYTLTISSLQPEDFATYFCQHYFHYPRTFGQGTKVEIKRTVAAPDVVMTQSPLSLPVTPGEPASISCRSSQSLLHSNGFNYVDWYLQKPGQSPHLLIYFGSYRASGVPDRFSGSGSGTDFTLKISRVEAEDVGVYYCMQALQTPPWTFGQGTKVEIRRTVAAPSVFIFPPSDEQLKSGTASVVCLLNNFYPREAKVQWKVDNALQSGNSQESVTEQDSKDSTYSLSSTLTLSKADYEKHKVYACEVTHQGLSSPVTKSFNRGEC
B4: DVD1362 (bispecific antibody, human IgG1, kappa)
heavy: not shown
light: QSALTQPASVSGSPGQSITISCTGTSSDVGSYNVVSWYQQHPGKAPKLIIYEVSQRPSGVSNRFSGSKSGNTASLTISGLQTEDEADYYCCSYAGSSIFVIFGGGTKVTVLGQPKAAPDIQMTQSPSSLSASVGDRVTITCRASEDIYNALAWYQQKPGKAPKLLIYNTDTLHTGVPSRFSGSGSGTDYTLTISSLQPEDFATYFCQHYFHYPRTFGQGTKVEIKRTVAAPSVFIFPPSDEQLKSGTASVVCLLNNFYPREAKVQWKVDNALQSGNSQESVTEQDSKDSTYSLSSTLTLSKADYEKHKVYACEVTHQGLSSPVTKSFNRGEC
B5: DVD1314 (bispecific antibody, human IgG1, kappa)
heavy: not shown
light: QSVLTQPPSVSAAPGQKVTISCSGSSSNIENNHVSWYQQLPGTAPKLLIYDNNKRPSGIPDRFSGSKSGTSATLGITGLQTGDEADYYCETWDTSLSAGRVFGGGTKLTVLGQPKAAPDIQMTQSPSSLSASVGDRVTITCRASEDIYNALAWYQQKPGKAPKLLIYNTDTLHTGVPSRFSGSGSGTDYTLTISSLQPEDFATYFCQHYFHYPRTFGQGTKVEIKRTVAAPSVFIFPPSDEQLKSGTASVVCLLNNFYPREAKVQWKVDNALQSGNSQESVTEQDSKDSTYSLSSTLTLSKADYEKHKVYACEVTHQGLSSPVTKSFNRGEC
B6: DVD1313 (bispecific antibody, human IgG1, lambda)
heavy: not shown
light: DIQMTQSPSSLSASVGDRVTITCRASEDIYNALAWYQQKPGKAPKLLIYNTDTLHTGVPSRFSGSGSGTDYTLTISSLQPEDFATYFCQHYFHYPRTFGQGTKVEIKRTVAAPQSVLTQPPSVSAAPGQKVTISCSGSSSNIENNHVSWYQQLPGTAPKLLIYDNNKRPSGIPDRFSGSKSGTSATLGITGLQTGDEADYYCETWDTSLSAGRVFGGGTKLTVLGQPKAAPSVTLFPPSSEELQANKATLVCLISDFYPGAVTVAWKADSSPVKAGVETTTPSKQSNNKYAASSYLSLTPEQWKSHRSYSCQVTHEGSTVEKTVAPTECS
B7: DVD1335 (bispecific antibody, human IgG1, kappa)
heavy: not shown
light: DIQMTQSPSSLSASVGDRVTITCRASEDIYNALAWYQQKPGKAPKLLIYNTDTLHTGVPSRFSGSGSGTDYTLTISSLQPEDFATYFCQHYFHYPRTFGQGTKVEIKRTVAAPQIVLSQSPAILSPSPGEKVTMTCRASSSVSYIHWFQQKPGSSPKPWIYATSNLASGVPVRFSGSGSGTSYSLTISRVEAEDAATYYCQQWTSNPPTFGGGTKLEIKRTVAAPSVFIFPPSDEQLKSGTASVVCLLNNFYPREAKVQWKVDNALQSGNSQESVTEQDSKDSTYSLSSTLTLSKADYEKHKVYACEVTHQGLSSPVTKSFNRGEC
B8: DVD1318 (bispecific antibody, human IgG1, kappa)
heavy: not shown
light: DIEMTQSPDSLAVSLGERATINCRSSQSVLYSSSNRNYLAWYQQNPGQPPKLLIYWASTRESGVPDRFSGSGSGTDFTLTISSLQAEDVAVYYCQQYYSTPRTFGQGTKVEIKRTVAAPDIQMTQSPSSLSASVGDRVTITCRASEDIYNALAWYQQKPGKAPKLLIYNTDTLHTGVPSRFSGSGSGTDYTLTISSLQPEDFATYFCQHYFHYPRTFGQGTKVEIKRTVAAPSVFIFPPSDEQLKSGTASVVCLLNNFYPREAKVQWKVDNALQSGNSQESVTEQDSKDSTYSLSSTLTLSKADYEKHKVYACEVTHQGLSSPVTKSFNRGEC
B9: DVD1316 (bispecific antibody, human IgG1, kappa)
heavy: not shown
light: DVVMTQSPLSLPVTPGEPASISCRSSQSLLHSNGFNYVDWYLQKPGQSPHLLIYFGSYRASGVPDRFSGSGSGTDFTLKISRVEAEDVGVYYCMQALQTPPWTFGQGTKVEIRRTVAAPDIQMTQSPSSLSASVGDRVTITCRASEDIYNALAWYQQKPGKAPKLLIYNTDTLHTGVPSRFSGSGSGTDYTLTISSLQPEDFATYFCQHYFHYPRTFGQGTKVEIKRTVAAPSVFIFPPSDEQLKSGTASVVCLLNNFYPREAKVQWKVDNALQSGNSQESVTEQDSKDSTYSLSSTLTLSKADYEKHKVYACEVTHQGLSSPVTKSFNRGEC

molecular target: Recombinant Human β-NGF (human, UniProt P01138 122-241); assay: cell-based or functional assay

Going from B1 to B3, the “N-Terminal VD NGF Inhibition Assay EC50” value rises from 0.6 pM to 2.2 pM (3.7-fold).

Compared with B6, B7 is 3-fold lower in “N-Terminal VD NGF Inhibition Assay EC50” value: 0.9 pM for the first, 0.3 pM for the second.

Going from B2 to B4, the “C-Terminal VD NGF Inhibition Assay EC50” value falls from 1270 pM to 2.5 pM (510-fold).

First: B5
Second: B8
The “C-Terminal VD NGF Inhibition Assay EC50” value of the first is 180-fold lower: 0.3 pM for the first, 53.4 pM for the second.

With B9 the “C-Terminal VD NGF Inhibition Assay EC50” value was 874 pM.
